This is an account of results in patent US20160297873A1 (VIRGINIA COMMONWEALTH UNIVERSITY, published 2016).

Test [1] concerns the target biotinylated DENND1A.V2 specific 21 amino acid peptide … (Biotin-CH22) (human). Put plainly: QC phage ELISA-2, helper phage control, coating Biotin-CH22.
The target is the same in test [2]. Put plainly: QC phage ELISA-1, helper phage control, coating Biotin-CH22. A general note: In an ELISA, binding on a coated surface is turned into a signal by an enzyme label.
Test [3] deals with T1, biotinylated DENND1A.V2 specific 21 amino acid peptide QKSITHFAAKFPTRGWTSSSH (Biotin-CH22) (human, biotinylated (position not given)).
T1 construct: Immobilised on streptavidin pre-coated plates; The label CH22 is not explained; also called Bio-CH-22; bio-peptide
T1 peptide: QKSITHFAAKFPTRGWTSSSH
Description: ELISA (FIG. 11C).

As to M13KO7 helper phage, the figures for the phage ELISA signal in test [1] and in test [2] were 0.533 and 0.477, respectively.

B1: human recombinant DENND1A.V2 specific IgG1 (V2 hmAB) (antibody, V domains shown)
VH: EVQLLESGGGLVQPGGSLRLSCAASGFTFSSYAMSWVRQAPGKGLEWVSIIGTDGDDTNYADSVKGRFTISRDNSKNTLYLQMNSLRAEDTAVYYCAKAEASFDYWGQGTLVTVSS
VL: DIQMTQSPSSLSASVGDRVTITCRASQSISSYLNWYQQKPGKAPKLLIYGASDLQSGVPSRFSGSGSGTDFTLTISSLQPEDFATYYCQQYDSAPSTFGQGTKVEIKR
notes: Expressed in 293E cells, Protein A purified; also called humanized monoclonal antibody; recombinant DENND1A.V2 IgG1
For B1, in test [3], the binding result was “binds”.
